* marks the point of attachment. Quinaldoyl = O=C(c1ccc2ccccc2n1)*
T1: Human recombinant caspase-2 (human, UniProt P42575 170-452, limits assumed)
T1 sequence (looked up): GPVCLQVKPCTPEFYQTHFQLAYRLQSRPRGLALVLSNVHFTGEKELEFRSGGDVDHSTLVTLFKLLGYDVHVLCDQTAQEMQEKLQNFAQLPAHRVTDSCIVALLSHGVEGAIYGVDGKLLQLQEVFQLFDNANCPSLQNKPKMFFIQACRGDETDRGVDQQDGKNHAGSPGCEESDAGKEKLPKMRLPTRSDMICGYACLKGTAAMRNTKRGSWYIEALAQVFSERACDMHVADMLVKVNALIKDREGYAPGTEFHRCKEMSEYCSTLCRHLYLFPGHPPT

T2: Human recombinant caspase-6 (human, UniProt P55212 24-293, limits assumed)
T2 sequence (looked up): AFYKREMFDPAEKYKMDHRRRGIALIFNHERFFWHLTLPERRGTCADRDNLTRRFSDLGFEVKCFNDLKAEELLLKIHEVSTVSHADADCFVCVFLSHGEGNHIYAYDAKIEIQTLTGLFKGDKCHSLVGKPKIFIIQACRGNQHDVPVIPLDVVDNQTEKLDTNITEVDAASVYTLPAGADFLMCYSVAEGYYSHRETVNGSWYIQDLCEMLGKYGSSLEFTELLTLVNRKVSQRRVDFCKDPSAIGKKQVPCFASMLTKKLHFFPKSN


Columns and labels:
Assay in all cases: cell-based or functional assay
[1] = target: T1, Human recombinant caspase-2
[2] = target: T1, Human recombinant caspase-2; remark: listed apart in the source
[3] = target: T2, Human recombinant caspase-6

Binder	IC50 (nM), inhibition of Ac-VDVAD-AMC cleavage by human recombinant caspase-2 [1] [nM]	IC50, inhibition of caspase-2 [2] [nM]	IC50, inhibition of Ac-VEID-AMC cleavage by human recombinant caspase-6 [3] [nM]
Ac-VDVAD-aldehyde [Ac-VDVAD-cho]	75	–	–
Ac-VDESD-aldehyde (SMILES CC(=O)N[C@H](C(=O)N[C@@H](CC(=O)O)C(=O)N[C@@H](CCC(=O)O)C(=O)N[C@@H](CO)C(=O)N[C@H](C=O)CC(=O)O)C(C)C) [Ac-VDESD-cho]	175	–	–
Ac-LDEKD-aldehyde (SMILES CC(=O)N[C@@H](CC(C)C)C(=O)N[C@@H](CC(=O)O)C(=O)N[C@@H](CCC(=O)O)C(=O)N[C@@H](CCCCN)C(=O)N[C@H](C=O)CC(=O)O) [Ac-LDEKD-cho]	300	–	–
Ac-VDEAD-aldehyde (SMILES CC(=O)N[C@H](C(=O)N[C@@H](CC(=O)O)C(=O)N[C@@H](CCC(=O)O)C(=O)N[C@@H](C)C(=O)N[C@H](C=O)CC(=O)O)C(C)C) [Ac-VDEAD-cho]	85	–	–
Ac-LDESD-aldehyde (SMILES CC(=O)N[C@@H](CC(C)C)C(=O)N[C@@H](CC(=O)O)C(=O)N[C@@H](CCC(=O)O)C(=O)N[C@@H](CO)C(=O)N[C@H](C=O)CC(=O)O) [Ac-LDESD-cho]	300	–	–
Ac-VDEGD-aldehyde [VDEGD pentapeptidic-based inhibitor]	260	–	–
Quinaldoyl-VDVAD-{CH2O(2,6-difluorophenyl)} [Qco-VDVAD-CH2O(2,6-difluorophenyl)]	–	80	–
Ac-LDEGD-aldehyde (SMILES CC(=O)N[C@@H](CC(C)C)C(=O)N[C@@H](CC(=O)O)C(=O)N[C@@H](CCC(=O)O)C(=O)NCC(=O)N[C@H](C=O)CC(=O)O) [Ac-LDEGD-cho]	430	–	–
Ac-LDEAD-aldehyde (SMILES CC(=O)N[C@@H](CC(C)C)C(=O)N[C@@H](CC(=O)O)C(=O)N[C@@H](CCC(=O)O)C(=O)N[C@@H](C)C(=O)N[C@H](C=O)CC(=O)O) [Ac-LDEAD-cho]	85	–	~2000
Ac-FDESD-aldehyde (SMILES CC(=O)N[C@@H](Cc1ccccc1)C(=O)N[C@@H](CC(=O)O)C(=O)N[C@@H](CCC(=O)O)C(=O)N[C@@H](CO)C(=O)N[C@H](C=O)CC(=O)O) [Ac-FDESD-cho]	800	–	–
